Drawing on patent US5547843, this text covers binding (nt per SSB monomer) for one substance.

The test system of this data set is E. coli single-stranded DNA-binding protein (SSB) (Escherichia coli). As to conditions: saturating ratio inferred from priming titration (mass ratio SSB:DNA about 2.5); 40 mM Tris-Cl pH 7.5, 50 mM NaCl, 10 mM MgCl2, 0 C; indirect functional ….

Take M13 single-stranded viral DNA: the binding (nt per SSB monomer) is 22.
